Laboratory results reported in the supplement of paper PMC9170038.

Test system: MS2 coat protein
Experiment: apparent KD of MS2 coat protein; designed switch direction (-1 OFF switch, 1 ON switch): 1; higher = weaker reporter binding
Procedure, shortened: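 Normalised cluster fluorescence was curve-fitted, and each design's median over clusters is its apparent KD. Before this, SNAP-549-labelled MS2 coat protein was titrated from 0.7 or 1.5 nM, doubling to 3 µM, over RNA switches transcribed on Illumina chips by stalled E. coli RNA polymerase. Titrations had no input, 200 uM small-molecule ligand, or an oligonucleotide input, and steps lasted 0.8–1.5 h (lowest) to 10–20 min (highest).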

[1] = input ligand: microRNA oligo, concentration not stated
[2] = Eterna round: R95, input ligand: FMN 200 uM
[3] = Eterna round: R95, input ligand: microRNA oligo, concentration not stated
[4] = Eterna round: R95, input ligand: none

Sequence | apparent KD of MS2 coat protein (input ligand: FMN 200 uM) [nM] | apparent KD of MS2 coat protein [1] [nM] | apparent KD of MS2 coat protein (input ligand: none) [nM] | apparent KD of MS2 coat protein [2] [nM] | apparent KD of MS2 coat protein [3] [nM] | apparent KD of MS2 coat protein [4] [nM]
GCUCGAUGAGCGGUUUACAUGAGGAUCACCCAUGUACAUGGGCAGGAUAUUUACGUGCUUUGUGUAGAGAAGGGCCCAUCGAGC [SameState NG3 #74] (Eterna round: R96, puzzle: Same State NG 3) | 92.4 | 280 | 244 |  |  | 
GCUGGAAAUCACAUGAGGAUCACCCAUGUUCCGGAAACGGCACAGGAUAUCUGUCCGAAAAGGUCAGAGAAGGGUGAAACCAGC [Fiskers NG3ss - 85] (Eterna round: R96, puzzle: Same State NG 3) | 303 | 56.1 | 105 |  |  | 
GCUUCGGCGGUAGGAUAUCUAGGAUAUGGGAAGAGCUAAGCUUGGAAGUCACUUCACCCAGAAGGAGAGAAGGACACCUUCGGG [pwkr ssNG2 2FMN + F9.4] (Eterna round: R96, puzzle: Same State NG 2) | 230 | 3.87 | 47 |  |  | 
GGACGUCAACUCACUAAUUAACAUGAGGAUCACCCAUGUUCACAGGAUAUGAGUCCGAUUAGGACUCAGAAGGGUGAGACGUCC [Fiskers NG3ss - 48] (Eterna round: R96, puzzle: Same State NG 3) | 20.3 | 19.7 | 21.1 |  |  | 
GGACGUCAAUCUCCUACUUAAACAUGAGGAUCACCCAUGUCACAGGAUAUGAGUCCGAUUAGGACUCAGAAGGGUGAGACGUCC [Fiskers NG3ss - 50] (Eterna round: R96, puzzle: Same State NG 3) | 18.8 | 15.2 | 16 |  |  | 
GGAGAGAGAGCACAGGAUAUUUAAGGAGAGACAUGAGGAUCACCCAUGUGAGAGAGAGAGGAGAGAGAGAAGGGUGAGAGAGAGG [Altered State 2-17 - Jieux - Same State 2] (puzzle: Same State 2) |  |  |  | 109 | 79.1 | 83.9
GGAGCCAAGGCAGGAUAUUCAACAUGAGGAUCACCCAUGUGGGUAAUAAAGGCCAGAAGGCCUUGGGAGAAGGGCCAUGGCUCG [Xeonanis - 13 mod13] (Eterna round: R96, puzzle: Same State NG 2) | 16.8 | 9.17 | 17.7 |  |  | 
GGAGCCAAGGCAGGAUAUUCAUAUAAAUUAACAUGAGGAUCACCCAUGUAGGCCAGAAGGCCUUGGGAGAAGGGCCAUGGCUCG [Xeonanis - 13 mod8] (Eterna round: R96, puzzle: Same State NG 2) | 21.6 | 143 | 157 |  |  | 
GGAGCCGGCACCGAGGAUAUUCAUAUUAAAACAUGAGGAUCACCCAUGUACCGCAGAAGCGGUUGGGAGAAGGCGGAUCGGCUCG [Xeonanis - 23] (Eterna round: R96, puzzle: Same State 2) | 31.3 | 311 | 534 |  |  | 
GGAGCCGGCACCGAGGAUAUUCAUAUUAAAACAUGAGGAUCACCCAUGUACCGCAGAAGCGGUUGGGAGAAGGCGGAUCGGCUCG [Xeonanis - 23] (puzzle: Same State 2) |  |  |  | 33 | 271 | 730
GGAGCCGGCACCGAGGAUAUUCAUAUUAAAACAUGAGGAUCACCCAUGUAGAGGAGAACCUCUUGGGAGAAGGCGGAUCGGCUCG [Xeonanis - 26] (puzzle: Same State 2) |  |  |  | 289 | 723 | 1090
GGAGCCGGCCUAGGAUAUUUCAUAAUAAUACAUGAGGAUCACCCAUGUAGGCCAGAAGGCCUUGGGAAGAAGGAGGUCGGCUCC [Loop Effect - U26,U29] (Eterna round: R96, puzzle: Same State NG 2) | 14.1 | 26 | 43.2 |  |  | 
GGAGCCGGCCUAGGAUAUUUCAUAUAUUAACAUGAGGAUCACCCAUGUAGGCCAGAAGGCCUUGGGAAGAAGGAGGUCGGCUCC [Loop Effect - U25,U27,U28] (Eterna round: R96, puzzle: Same State NG 2) | 15.7 | 49.8 | 79.6 |  |  | 
GGAGCUGUUAUAGGAUAUCCCGCGCAUUACGCGGGAGAAGGGUGACGCUCACAUGAGGAUCACCCAUGUGGCGUUCCAAAAUAA [Rate] (Eterna round: R96, puzzle: Same State NG 1) | 11.8 | 8.12 | 12.4 |  |  | 
GGAGGACAUGAGGAUCACCCAUGUGGAUGAUCGCUAGGAUAUGCGUGCAGGAAGAGUGGUGCAGAAGGAGUGGGAU [JR_SS1_Sub048] (puzzle: Same State 1) |  |  |  |  | 348 | 
GGAUGAUAGACAGGAUAUUGAUUGUAAUUAGGUCAAGAAGGGUCAAUGAUUUAAACGACCAGUUACAUGAGGAUCACCCAUGUU [JR_SSNG1_Sub027] (Eterna round: R96, puzzle: Same State NG 1) | 160 | 208 | 315 |  |  | 
GGAUGAUUGACAGGAUAUCAUUUGUAAAUUGGUUGAGAAGGGUCGAUUACUUACACGACCUGUUACAUGAGGAUCACCCAUGUU [SameState NG1 #3] (Eterna round: R96, puzzle: Same State NG 1) | 34.9 | 20.5 | 31 |  |  | 
GGCAGGUGCAGGCUUGCUUGCACCUGGAGACAUGAGGAUCACCCAUGUUUGGGACAAGCUUUGCUCCUCGUCUUUUC [JL ViennaUCT Isusreraar mod 7] (Eterna round: R96, puzzle: Sensor for hsa-mir-208a) | 622 | 111 | 775 |  |  | 
GGCAGGUGCAGGCUUGCUUGCACCUGGAGACAUGAGGAUCACCCAUGUUUGGGACAAGCUUUGCUCCUCGUCUUUUC [JL ViennaUCT Isusreraar mod 7] (puzzle: Sensor for hsa-mir-208a) |  |  |  | 617 | 104 | 766
GGCCUCUGUCAAGGAUAUGCUACCGUUUCGGUAGCAGAAGGUGAUCACAUGAGGAUCACCCAUGUUUAGGCCAACAGGCCCGCC (Eterna round: R96, puzzle: Same State NG 1) | 1420 | 445 | 1070 |  |  | 
GGCUGUUAAUUAGGAUAUGGUCACAUGAGGAUCACCCAUGUAACGAUGAUACGAUGUGGUCAAGACUAGAAGGGAUCGCUAACA [SameState NG2 #71] (Eterna round: R96, puzzle: Same State NG 2) | 172 | 128 | 105 |  |  | 
GGGAGAGGUACAGGAUAUGGUGAGGAUCACCCACUAGAAGGGUGCACAUGUGAAUCGGACAUGAGGAUCACCCAUGUUGGGCGU (Eterna round: R96, puzzle: Same State NG 1) | 213 | 265 | 424 |  |  | 
GGGAGAGUUACAGGAUAUGGUGAGGAUUACCCACUAGAAGGGUAAACAUGUGAAUCGGACAUGAGGAUCACCCAUGUUGGGCGU (Eterna round: R96, puzzle: Same State NG 1) | 162 | 160 | 203 |  |  | 
GGUAAGAAUUAAGGAUAUUGAAUACAUAUGUUUAACAUGAGGAUCACCCAUGUGGGUUGCGGUGUCGAGAAGGUAAAUUACUAG [Mat - same State NG 2 - JL mod - D99] (Eterna round: R96, puzzle: Same State NG 2) | 281 | 179 | 229 |  |  | 
GGUAGGUUACUACCAAACAUGAGGAUCACCCAUGUAGGUGGGAAGGAUAUGGUACCUUUUAGGUACCAGAAGGUCCAUACGAUC [NGss mod of JL's mod of Fisker 2] (Eterna round: R96, puzzle: Same State NG 3) | 451 | 325 | 562 |  |  | 
GGUAGGUUACUACCAAACAUGAGGAUCACCCAUGUUGAUGGGAAGGAUAUGGUACCUUUUAGGUACCAGAAGGUCUACUCGAUC [NGss mod of JL's mod of Fisker 3] (Eterna round: R96, puzzle: Same State NG 3) | 111 | 106 | 148 |  |  | 
GGUAGGUUACUACCAAUCUACAUGAGGAUCACCCAUGUGUAGGAGGAUAUGGUACCUAUUUGGUACCAGAAGGCCUGAUUAAUU [Fiskers NG3ss - 8] (Eterna round: R96, puzzle: Same State NG 3) | 115 | 80.4 | 247 |  |  | 
GGUAUCGGCACAGGAUAUGCUAUCCUUUGGGUAGCAGAAGGGUGAACAUGAGGAUCACCCAUGUAGGUGCCAGGGCGUGAGCCC [JL SSNG1 1.80] (Eterna round: R96, puzzle: Same State NG 1) | 213 | 56.4 | 149 |  |  | 
GGUCCAGCCUGAGCUGGACAAAAGCAUGUACAUGAGGAUCACCCAUGUCAUGUACAAGCUUUUUGCUCGUCAUAAUG [Mat - hsa-mir-208a - 99] (puzzle: Sensor for hsa-mir-208a) |  |  |  | 713 | 18.6 | 806
GGUCCAGCCUGAGCUGGACAAAAGCAUGUACAUGAGGAUCACCCAUGUCAUGUACAAGCUUUUUGCUCGUCUAAAAU [Mat - hsa-mir-208a - 101] (puzzle: Sensor for hsa-mir-208a) |  |  |  | 508 | 15.8 | 629
